Data: US11827701B2, “IL-6 binding molecules” (argenx BV, priority 2012, dated 2023)
Positions count from the first letter of the chain named. Values joined by “and” are separate entries in the source; they are usually repeats but may differ in a detail not shown here. Equal values may be shown once.

B1: 61H7: anti-IL-6 clone from VH chain shuffling of 24D10; Fab and IgG formats (antibody, V domains shown)
VH: EVQLVESGGGLVQPGGSLRLSCAASGFTFSSYRMYWVRQPPGKGLEWVSAISAGGGSTYYGDSVKGRFTISRDNAKNTVYLQMNSLKPEDTAVYYCANRAGWGMGDYWGQGTQVTVSS
VL: QTVVTQEPSLSVSPGGTVTLTCGLSSGSVTASNYPGWFQQTPGQAPRALIYSTNDRHSGVPSRFSGSISGNKAALTITGAQPEDEADYYCALDIGDITEFGGGTHLTVLG
B2: 61B7: 24D10 chain-shuffled Fab (antibody, V domains shown)
VH: B1 VH with V2L, R33A, Y35S, P40A, L45P, A50R, A53S, T58A, G61A, V79L
VL: B1 VL
B3: 68F2: anti-IL-6 clone from VL shuffling of 20A4; Fab and human IgG1 formats (antibody, listed as Lama glama, V domains shown)
VH: EVQLQESGPGLVKPSQTLSLTCTVSGGSITTRYYAWSWIRQPPGKGLEWMGVIDYDGDTYYSPSLKSRTSISWDTSKNQFSLQLSSVTPEDTAVYYCARDPDVVTGFHYDYWGQGTQVTVSS
VL: QSALTQPPLVSGTPGQTVTISCAGANNDIGTYAYVSWYQQLPGTAPKLLIYKVTTRASGIPSRFSGSKSGNTASLTISGLQSEDEADYYCASYRNFNNAVFGRGTHLTVLG
B4: 55H1c: 29B11 chain shuffled Fab, periplasmic fraction (antibody, V domains shown)
VH: EVQLVESGGGLVQPGGSLRLSCAASGFTFSSYAMSWVRQAPGKGLEWVSRISSGGISTYYADSVKGRFTISRDNAKNTLYLQMNSLKPEDTAVYYCVRYAWGVQWAFDFWGQGTQVTVSS
VL: AQSVVTQPPSVSGSPGKTVTISCAGTSSDVGYGNYVSWYQQLPGMAPKLLIYDVSKRASGIADRFSGSKSGNTASLTISGLQSEDEADYVCASYRRGGTAVFGGGTHLTVLG

Legend:
[1] = tested on: induced psoriatic lesions; test: Humanized mouse psoriasis xenograft model (epidermal ridge thickness); type: in vivo; details: mean±s.e.m.; BNX mice
Procedure: A mouse xenograft model was employed to evaluate the prophylactic efficacy of clone 68F2 on the development of induced psoriatic lesions. Specifically, BNX mice were transplanted with 5 mm diameter full-thickness skin biopsies from non-involved skin from psoriasis patients (1 per mouse). After 3 weeks, the transplants were injected with 0.5×10^6 activated PBMCs. Treatment of mice with clone 68F2, anti-TNF antibody (Remicade), or betamethasone dipropionate (positive control) was begun 1 day before the activated cells were injected into the transplants.
Treatment efficacy was determined by epidermal ridge thickness, as measured by light microscopy. Significance between groups was analyzed statistically using analysis of variance (ANOVA) followed by post-hoc Least Square Difference (LSD) tests to establish statistical significance differences between treatment groups. A value of p<0.05 denoted a significant difference between groups.

[2] = biological target: T1, eukaryotically produced human IL-6 (Homo sapiens, UniProt P05231); test: Surface plasmon resonance (Biacore), eukaryotically produced human IL-6 coated on CM5 chip; type: binding; details: for RANKED euk (off-rate): 24D10 chain-shuffled Fabs; for Average binding: average over the IL-6 forms
T1 construct: purchased Humanzyme HZ-1044; host or cells: Human Embryonic kidney cells
T1 sequence (P05231 30-212): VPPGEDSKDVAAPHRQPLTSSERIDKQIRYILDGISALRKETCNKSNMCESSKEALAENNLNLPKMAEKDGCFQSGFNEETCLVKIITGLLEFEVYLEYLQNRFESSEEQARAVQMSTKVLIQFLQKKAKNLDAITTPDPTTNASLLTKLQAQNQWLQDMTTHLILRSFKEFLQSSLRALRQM

[3] = biological target: T2, bacterially produced human IL-6 (Homo sapiens, UniProt P05231); test: Surface plasmon resonance (Biacore), bacterially produced human IL-6 coated on CM5 chip; type: binding; details: for Bact (off-rate): 24D10 chain-shuffled Fabs
T2 construct: His
T2 sequence (P05231 30-212): as above

[4] = tested on: IL-6; test: Serum amyloid A (SAA) mouse model, induction by injected IL-6; type: in vivo; parameters: SAA, Mean / SAA, Mouse1 / SAA, Mouse2 / SAA, Mouse3 / SAA, Mouse4 / SAA, Mouse5 / SAA, Mouse6: unit not given here; details: for SAA, Mouse1 / SAA, Mouse2 / SAA, Mouse3 / SAA, Mouse4 / SAA, Mouse5 / SAA, Mouse6 / SAA, Mean: 0.1 μg IL-6; for SAA, Mean: mean of 6 mice; for in vivo efficacy (block of SAA induction): Balb/c mice, i.v., 0.1 ug IL-6
Procedure: The in vivo efficacy of clones 68F2 and 61H7 was further investigated by measuring the ability of these antibodies to block serum amyloid A (SAA) induction in response to injected IL-6. General methods for performing this assay are set forth in WO2006/119115A2, which is hereby incorporated by reference in its entirety. […] Four hours after administration of the antibody, the mice were injected with 0.1 ug of IL-6. After a further 16 hours, blood was taken from the mice and the concentration of Serum Amyloid A was determined by ELISA. The dose responses are also graphically depicted in FIG. 13.

[5] = biological target: T3, cynomolgus monkey IL-6 (Macaca fascicularis, UniProt P79341); test: Surface plasmon resonance (Biacore), cynomolgus monkey IL-6; type: binding; details: periplasmic fractions, 24D10 chain-shuffled Fabs
T3 construct: His
T3 sequence (P79341 28-212): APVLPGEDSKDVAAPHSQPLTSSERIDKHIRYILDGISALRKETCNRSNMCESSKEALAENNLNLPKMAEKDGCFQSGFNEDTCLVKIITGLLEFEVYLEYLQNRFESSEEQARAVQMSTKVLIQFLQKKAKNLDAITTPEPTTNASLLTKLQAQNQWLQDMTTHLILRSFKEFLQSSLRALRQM

[6] = biological target: T3, cynomolgus monkey IL-6; test: as above; type: binding
[7] = tested on: RXF393 cells; test: Renal cell cancer mouse xenograft model; type: in vivo
Procedure: The in vivo efficacy of clones 68F2 was investigated in a renal cell cancer mouse xenograft model. […] Briefly, RXF393 cells (2×10^6) were injected subcutaneously at both lateral sides of a nude mouse. Tumors were allowed to grow to a volume between of 50 en 300 mm^3, prior to antibody administration. 90% of the injected mice developed a tumor. 40 mice were split into 5 groups of 8 mice. Each group was received intraperatoneal injection of either PBS (control) or a specific dose of clone 68F2 (1, 3, 10, or 30 mg/kg). Tumor size and survival was monitored twice per week.

[8] = Euk IL-6, purified 24D10 chain-shuffled Fabs
[9] = Bact, purified 24D10 chain-shuffled Fabs
[10] = euk, periplasmic fractions, 29B11 chain shuffled
[11] = bact, periplasmic fractions, 29B11 chain shuffled
[12] = cy/cyno, periplasmic fractions, 29B11 chain shuffled

Molecule | epidermal ridge thickness [1] | ka [2, 8] | kd [2, 8] | RANKED euk (off-rate) ([2]; periplasmic fractions) | Average binding ([2]; periplasmic fractions) | ka [3, 9] | kd [3, 9] | Bact (off-rate) ([3]; periplasmic fractions) | SAA, Mouse1 ([4]; Ab dose/mouse 0.31 μg) | SAA, Mouse2 ([4]; Ab dose/mouse 0.31 μg) | SAA, Mouse3 ([4]; Ab dose/mouse 0.31 μg) | SAA, Mouse4 ([4]; Ab dose/mouse 0.31 μg) | SAA, Mouse5 ([4]; Ab dose/mouse 0.31 μg) | SAA, Mouse6 ([4]; Ab dose/mouse 0.31 μg) | SAA, Mean ([4]; Ab dose/mouse 0.31 μg) | SAA, Mouse1 ([4]; Ab dose/mouse 1.25 μg) | SAA, Mouse2 ([4]; Ab dose/mouse 1.25 μg) | SAA, Mouse3 ([4]; Ab dose/mouse 1.25 μg) | SAA, Mouse4 ([4]; Ab dose/mouse 1.25 μg) | cyno (off-rate) [5] | other results
CCC(=O)OCC(=O)[C@@]1(OC(=O)CC)[C@@H](C)C[C@H]2[C@@H]3CCC4=CC(=O)C=C[C@]4(C)[C@@]3(F)[C@@H](O)C[C@@]21C [betamethasone, betamethasone dipropionate] | 83 μm |  |  |  |  |  |  |  |  |  |  |  |  |  |  |  |  |  |  |  | 
Remicade: anti-TNF antibody | 125 μm |  |  |  |  |  |  |  |  |  |  |  |  |  |  |  |  |  |  |  | 
B1 |  | 120000 M⁻¹ s⁻¹ | 5.5e-05 s⁻¹ | 9.32E−05 | 635 RU | 120000 M⁻¹ s⁻¹ | 2e-06 s⁻¹ | 7.54E−05 | 184 | 148 | 124 | 140 | 133 | 76 | 134.2 | 66 | 29 | 33 | 30 | 9.45E−05 | binding ([2]; periplasmic fractions ('pur' = purified Fab), IL-6 form not stated): 176; SAA, Mouse5 ([4]; Ab dose/mouse 1.25 μg): 24; SAA, Mouse6 ([4]; Ab dose/mouse 1.25 μg): 35; SAA, Mean ([4]; Ab dose/mouse 1.25 μg): 36.2; SAA, Mouse1 ([4]; Ab dose/mouse 5 μg): 47; SAA, Mouse2 ([4]; Ab dose/mouse 5 μg): 62; SAA, Mouse3 ([4]; Ab dose/mouse 5 μg): 47; SAA, Mouse4 ([4]; Ab dose/mouse 5 μg): 40; SAA, Mouse5 ([4]; Ab dose/mouse 5 μg): 46; SAA, Mouse6 ([4]; Ab dose/mouse 5 μg): 47; SAA, Mean ([4]; Ab dose/mouse 5 μg): 48.2; in vivo efficacy (block of SAA induction) [4]: in vivo efficacy at least equal to the high potency benchmark controls GL18 and CNTO136
B2 |  | 330000 M⁻¹ s⁻¹ | 6.6e-05 s⁻¹ | 9.79E−05 | 597 RU | 350000 M⁻¹ s⁻¹ | 5.7e-05 s⁻¹ | 9.07E−05 |  |  |  |  |  |  |  |  |  |  |  | 1.16E−04 | 
B3 | 125 μm |  |  |  |  |  |  |  | 83 | 129 | 116 | 132 | 145 | 136 | 123.5 | 69 | 67 | 81 | 73 |  | Koff HIS-cyIL-6 ([6]; purified chain-shuffled Fabs): 0.00075 s⁻¹; SAA, Mouse5 ([4]; Ab dose/mouse 1.25 μg): 47; SAA, Mouse6 ([4]; Ab dose/mouse 1.25 μg): 83; SAA, Mean ([4]; Ab dose/mouse 1.25 μg): 70.0; SAA, Mouse1 ([4]; Ab dose/mouse 5 μg): 76; SAA, Mouse2 ([4]; Ab dose/mouse 5 μg): 38; SAA, Mouse3 ([4]; Ab dose/mouse 5 μg): 46; SAA, Mouse4 ([4]; Ab dose/mouse 5 μg): 63; SAA, Mouse5 ([4]; Ab dose/mouse 5 μg): 43; SAA, Mouse6 ([4]; Ab dose/mouse 5 μg): 40; SAA, Mean ([4]; Ab dose/mouse 5 μg): 51.0; in vivo efficacy (block of SAA induction) [4]: in vivo efficacy at least equal to the high potency benchmark controls GL18 and CNTO136; median survival time ([7]; 1 mg/kg): 21 days; median survival time ([7]; 3 mg/kg): 21 days; median survival time ([7]; 10 mg/kg): 27.5 days; median survival time ([7]; 30 mg/kg): 21 days; tumor outgrowth ([7]; 1, 3, 10, 30 mg/kg): effective at inhibiting tumor outgrowth in a dose-dependent manner with saturating effects at 10 mg/kg dose
B4 |  |  |  | 1.01E−04 and 1.06E−04 and 1.13E−04 | 773 RU and 770 RU and 873 RU |  |  | 1.35E−04 and 1.40E−04 and 1.26E−04 |  |  |  |  |  |  |  |  |  |  |  | 4.17E−04 and 4.30E−04 and 3.90E−04 | KA [2, 10]: 1.02e+10 M⁻¹; ka [2, 10]: 1.13e+06 M⁻¹ s⁻¹; kd [2, 10]: 0.000111 s⁻¹; KA [3, 11]: 1e+10 M⁻¹; ka [3, 11]: 1.28e+06 M⁻¹ s⁻¹; kd [3, 11]: 0.000127 s⁻¹; KA [6, 12]: 1.89e+09 M⁻¹; ka [6, 12]: 1.16e+06 M⁻¹ s⁻¹; kd [6, 12]: 0.000615 s⁻¹
